Test results taken from paper PMC8580058 (ACS catalysis, 2019).

Experiments:
[1] = target: glucose-6-phosphate dehydrogenase (G6PDH) (Thermotoga maritima, UniProt Q9X0N9); assay: specific activity of purified enzyme; assay type: biochemical; conditions: co-substrate glucose 6-phosphate
[2] = substrate: NC(=O)c1ccc[n+]([C@@H]2O[C@H](COP(=O)([O-])O)[C@@H](O)[C@H]2O)c1; assay: steady-state kinetics of purified enzyme; assay type: biochemical, Thermotoga maritima; conditions: apparent constants; co-substrate 6-phosphogluconate; assay details in supplement
[3] = substrate: NC(=O)c1ccc[n+]([C@@H]2O[C@H](COP(=O)(O)OP(=O)(O)OC[C@H]3O[C@@H](n4cnc5c(N)ncnc54)[C@H](OP(=O)(O)O)[C@@H]3O)[C@@H](O)[C@H]2O)c1; assay: steady-state kinetics of purified enzyme; assay type: biochemical, Thermotoga maritima; conditions: apparent constants; co-substrate 6-phosphogluconate; assay details in supplement

glucose-6-phosphate dehydrogenase (G6PDH), sequence (Q9X0N9 whole entry): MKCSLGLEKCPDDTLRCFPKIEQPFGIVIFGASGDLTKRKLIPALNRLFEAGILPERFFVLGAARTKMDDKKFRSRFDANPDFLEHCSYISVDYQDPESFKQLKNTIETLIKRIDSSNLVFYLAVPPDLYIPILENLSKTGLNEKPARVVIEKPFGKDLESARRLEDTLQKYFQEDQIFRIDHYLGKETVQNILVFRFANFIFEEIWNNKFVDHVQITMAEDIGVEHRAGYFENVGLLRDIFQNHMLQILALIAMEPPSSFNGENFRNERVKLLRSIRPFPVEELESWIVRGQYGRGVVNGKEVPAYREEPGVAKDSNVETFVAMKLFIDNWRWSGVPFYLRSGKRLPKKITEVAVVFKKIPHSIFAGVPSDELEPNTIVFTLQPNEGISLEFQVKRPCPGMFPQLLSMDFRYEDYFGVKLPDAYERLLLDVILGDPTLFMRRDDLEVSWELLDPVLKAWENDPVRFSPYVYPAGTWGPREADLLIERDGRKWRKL

Row | Molecule | specific activity of purified enzyme [1] | Km [2] [mM] | kcat [2] [s⁻¹] | kcat/Km [2] [M⁻¹ s⁻¹] | Km [3] [mM] | kcat [3] [s⁻¹] | kcat/Km [3] [M⁻¹ s⁻¹]
1 | NC(=O)c1ccc[n+]([C@@H]2O[C@H](COP(=O)([O-])O)[C@@H](O)[C@H]2O)c1 [NMN^+] | color intensities of colonies positively correlated with the specific activities of the purified dehydrogenases on NMN^+ |  |  |  |  |  | 
2 | 6-phosphogluconate dehydrogenase (6PGDH) (Thermotoga maritima MSB8) (protein) MKSHIGLIGLAVMGQNLALNIARKGYKVSVYNRTAQRTEEFVKNRVTNEEIEPHYDIESFVKSLERPRKIILMVKAGKPVDDTISQLLPHLEPGDLIIDGGNSHYMDTERRFKELSEKGILFLGMGVSGGEYGALHGPSLMPGGSREAYNLVEEILLEIAAKTEDGPCCTYVGERSAGHFVKMVHNGIEYAIMQAIAEVYHIMRDVLSLSSEEMSSIFEEWNRGELSSFLVEITYKILRKKDEETGKPMVDVILDKAEQKGTGKWTSQAALDLGIPTPSINLAVVERVISHFKDIRTRLSKLYNKRRSATQGSEEFLRDLRNSLFFAMFMAFSQGMWLIAEASKEFGYGVSLSEVLRIWKGGCIIRAKLIDTLRRYISNENAYLLENEEVMNLLKGKIDSLKNILKASIENEIPVPVLSSSYNYFMSLTEERLPANLIQAQRDFFGAHTFERVDREGVFHINWEEGEIG |  | 30.6 ± 1.7 | 1.3 ± 0.1 | 42 | 0.0012 ± 0.0001 | 15.9 ± 0.2 | 1.34e+07
3 | 6-phosphogluconate dehydrogenase (6PGDH) (Thermotoga maritima MSB8; A11G/R33I/T34I) (protein) MKSHIGLIGLGVMGQNLALNIARKGYKVSVYNIIAQRTEEFVKNRVTNEEIEPHYDIESFVKSLERPRKIILMVKAGKPVDDTISQLLPHLEPGDLIIDGGNSHYMDTERRFKELSEKGILFLGMGVSGGEYGALHGPSLMPGGSREAYNLVEEILLEIAAKTEDGPCCTYVGERSAGHFVKMVHNGIEYAIMQAIAEVYHIMRDVLSLSSEEMSSIFEEWNRGELSSFLVEITYKILRKKDEETGKPMVDVILDKAEQKGTGKWTSQAALDLGIPTPSINLAVVERVISHFKDIRTRLSKLYNKRRSATQGSEEFLRDLRNSLFFAMFMAFSQGMWLIAEASKEFGYGVSLSEVLRIWKGGCIIRAKLIDTLRRYISNENAYLLENEEVMNLLKGKIDSLKNILKASIENEIPVPVLSSSYNYFMSLTEERLPANLIQAQRDFFGAHTFERVDREGVFHINWEEGEIG |  | 20.7 ± 0.7 | 10.2 ± 0.2 | 490 | 2.1 ± 0.1 | 28.3 ± 0.6 | 13200
4 | 6-phosphogluconate dehydrogenase (6PGDH) (Thermotoga maritima MSB8; R33I/T34I) (protein) MKSHIGLIGLAVMGQNLALNIARKGYKVSVYNIIAQRTEEFVKNRVTNEEIEPHYDIESFVKSLERPRKIILMVKAGKPVDDTISQLLPHLEPGDLIIDGGNSHYMDTERRFKELSEKGILFLGMGVSGGEYGALHGPSLMPGGSREAYNLVEEILLEIAAKTEDGPCCTYVGERSAGHFVKMVHNGIEYAIMQAIAEVYHIMRDVLSLSSEEMSSIFEEWNRGELSSFLVEITYKILRKKDEETGKPMVDVILDKAEQKGTGKWTSQAALDLGIPTPSINLAVVERVISHFKDIRTRLSKLYNKRRSATQGSEEFLRDLRNSLFFAMFMAFSQGMWLIAEASKEFGYGVSLSEVLRIWKGGCIIRAKLIDTLRRYISNENAYLLENEEVMNLLKGKIDSLKNILKASIENEIPVPVLSSSYNYFMSLTEERLPANLIQAQRDFFGAHTFERVDREGVFHINWEEGEIG |  | 37.9 ± 3.6 | 1.7 ± 0.1 | 46 | 11.5 ± 1.1 | 14.8 ± 0.7 | 1300
5 | 6-phosphogluconate dehydrogenase (6PGDH) (Thermotoga maritima MSB8; A11G/D82L/Q86L/R33I/T34I/T83L) (protein) MKSHIGLIGLGVMGQNLALNIARKGYKVSVYNIIAQRTEEFVKNRVTNEEIEPHYDIESFVKSLERPRKIILMVKAGKPVDLLISLLLPHLEPGDLIIDGGNSHYMDTERRFKELSEKGILFLGMGVSGGEYGALHGPSLMPGGSREAYNLVEEILLEIAAKTEDGPCCTYVGERSAGHFVKMVHNGIEYAIMQAIAEVYHIMRDVLSLSSEEMSSIFEEWNRGELSSFLVEITYKILRKKDEETGKPMVDVILDKAEQKGTGKWTSQAALDLGIPTPSINLAVVERVISHFKDIRTRLSKLYNKRRSATQGSEEFLRDLRNSLFFAMFMAFSQGMWLIAEASKEFGYGVSLSEVLRIWKGGCIIRAKLIDTLRRYISNENAYLLENEEVMNLLKGKIDSLKNILKASIENEIPVPVLSSSYNYFMSLTEERLPANLIQAQRDFFGAHTFERVDREGVFHINWEEGEIG |  | 27.5 ± 1.2 | 19.3 ± 0.4 | 700 | 0.39 ± 0.02 | 21.1 ± 0.3 | 53700
6 | 6-phosphogluconate dehydrogenase (6PGDH) (Thermotoga maritima MSB8; A11G/A447V/D294V/D82L/I120F/K27R/N387S/Q86L/R33I/T34I/T83L/Y383C) (protein) MKSHIGLIGLGVMGQNLALNIARKGYRVSVYNIIAQRTEEFVKNRVTNEEIEPHYDIESFVKSLERPRKIILMVKAGKPVDLLISLLLPHLEPGDLIIDGGNSHYMDTERRFKELSEKGFLFLGMGVSGGEYGALHGPSLMPGGSREAYNLVEEILLEIAAKTEDGPCCTYVGERSAGHFVKMVHNGIEYAIMQAIAEVYHIMRDVLSLSSEEMSSIFEEWNRGELSSFLVEITYKILRKKDEETGKPMVDVILDKAEQKGTGKWTSQAALDLGIPTPSINLAVVERVISHFKVIRTRLSKLYNKRRSATQGSEEFLRDLRNSLFFAMFMAFSQGMWLIAEASKEFGYGVSLSEVLRIWKGGCIIRAKLIDTLRRYISNENACLLESEEVMNLLKGKIDSLKNILKASIENEIPVPVLSSSYNYFMSLTEERLPANLIQAQRDFFGVHTFERVDREGVFHINWEEGEIG |  | 15.1 ± 0.6 | 18.9 ± 0.4 | 1250 | 0.22 ± 0.01 | 21.9 ± 0.2 | 101000
7 | 6-phosphogluconate dehydrogenase (6PGDH) (Thermotoga maritima MSB8; A11G/A447V/D294V/D82L/F326S/F60Y/I120F/K118N/K27R/N387S/Q86L/R33I/T34I/T83L/Y383C) (protein) MKSHIGLIGLGVMGQNLALNIARKGYRVSVYNIIAQRTEEFVKNRVTNEEIEPHYDIESYVKSLERPRKIILMVKAGKPVDLLISLLLPHLEPGDLIIDGGNSHYMDTERRFKELSENGFLFLGMGVSGGEYGALHGPSLMPGGSREAYNLVEEILLEIAAKTEDGPCCTYVGERSAGHFVKMVHNGIEYAIMQAIAEVYHIMRDVLSLSSEEMSSIFEEWNRGELSSFLVEITYKILRKKDEETGKPMVDVILDKAEQKGTGKWTSQAALDLGIPTPSINLAVVERVISHFKVIRTRLSKLYNKRRSATQGSEEFLRDLRNSLFSAMFMAFSQGMWLIAEASKEFGYGVSLSEVLRIWKGGCIIRAKLIDTLRRYISNENACLLESEEVMNLLKGKIDSLKNILKASIENEIPVPVLSSSYNYFMSLTEERLPANLIQAQRDFFGVHTFERVDREGVFHINWEEGEIG |  | 16.0 ± 1.1 | 25.8 ± 0.8 | 1620 | 0.21 ± 0.01 | 23.6 ± 0.3 | 113000
